Test results published in patent publication US20210163594A1 (INVENRA, published 2021).

T1: CD3
T1 chain: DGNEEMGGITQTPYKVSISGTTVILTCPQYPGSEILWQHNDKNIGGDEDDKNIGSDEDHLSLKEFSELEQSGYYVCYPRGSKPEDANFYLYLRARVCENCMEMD


What was measured:
CD3 = target: T1, CD3; assay: BLI (Octet), two-fold serial dilution (200-12.5 nM) of the monovalent B-Body
CTLA4 = CTLA4 (UniProt P16410 36-161, limits assumed); assay: BLI (Octet), antigen immobilized, B-Body as analyte
From the text: In each instance, the antigen is immobilized and the B-Body is the analyte.

Chain of CTLA4 (P16410 36-161 limits assumed): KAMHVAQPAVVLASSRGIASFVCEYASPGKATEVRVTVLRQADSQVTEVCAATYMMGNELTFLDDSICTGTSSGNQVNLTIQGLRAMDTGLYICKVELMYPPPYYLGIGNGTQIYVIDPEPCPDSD

Binder | Kd (CD3) [nM] | koff (CD3) [s⁻¹] | kon (CD3) [M⁻¹ s⁻¹] | binding result (CTLA4)
non-mutagenized SP34-89 monovalent B-Body (bispecific antibody, V domains shown, VL and VH were cloned into one arm of a 1×1 BC1 B-Body; Constant parts as in the BC1 scaffold; also called SP34-89 VL-WT/SP34-89 VH-WT) VH: EVQLVESGGGLVQPGGSLRLSCAASGFTFNTYAMNWVRQAPGKGLEWVARIRSKYNNYATYYADSVKGRFSISRDDSKNTAYLQMNSLRAEDTAVYYCVRHGNFGNSYVSWFAYWGQGTLVTV VL: QAVVTQEPSLTVSPGGTVTLTCRSSTGAVTTSNYANWVQQKPGQAPRGLIGGTNKRAPWTPARFSGSLLGGKAALTITGAQAEDEADYYCALWYSNLWVFGGGTKLTVL | 23 | 0.0071 | 300000 | 
BC1 (bispecific antibody, also called bivalent bispecific B-Body BC1; bivalent 1×1 construct BC1) chain 1: not shown chain 2: EVQLVESGGGLVQPGGSLRLSCAASGFTFSDYDIHWVRQAPGKGLEWVGDITPYDGTTNYADSVKGRFTISADTSKNTAYLQMNSLRAEDTAVYYCARLVGEIATGFDYWGQGTLVTVSSASPREPQVYTDPPSRDELTKNQVSLTCLVKGFYPSDIAVEWESNGQPENNYKTTPPVLDSDGSFFLYSKLTVDKSRWQQGNVFSCSVMHEALHNHYTQKSLSLSGEC chain 3: not shown chain 4: QVQLVESGGGVVQPGRSLRLDCKASGITFSNSGMHWVRQAPGKGLEWVAVIWYDGSKRYYADSVKGRFTISRDNSKNTLFLQMNSLRAEDTAVYYCATNDDYWGQGTLVTVSSASTKGPSVFPLAPSSKSTSGGTAALGCLVKDYFPEPVTVSWNSGALTSGVHTFPAVLQSSGLYSLSSVVTVPSSSLGTQTYICNVNHKPSNTKVDKKVEPPKSC |  |  |  | no binding
